The test system of data set [1] is elastase. Kind of data set: Association constant to elastase (Beatty's method). In kind it is biochemical. On the procedure:
(§1) Specifically, the AT's activity to inhibit elastase was evaluated by: mixing elastase and AT extract to react them, adding thereto a substrate (prepared by dissolving succinyl-alanyl-alanyl-alanyl-para-nitroanilide (SIGMA S4760) in dimethyl sulfoxide) and measuring the change of absorbency at 410 nm to determine the residual elastase activity. The thermal stability of AT was estimated by determining its activity of inhibiting elastase, using AT treated at 55° C. in case cell extract is used or at 57° to 58° C. in case a purified AT is used. As controls, a wild-type AT produced in E. coli or yeast cell and natural AT isolated and purified from human plasma were used.
From the reaction mixture containing the same concentrations (8 nM) of elastase and AT, samples of the mixture were taken every minute for 10 mins. 1 mM succinyl-alanyl-alanyl-alanyl-p-nitroanilide (SIGMAS4760) was added as a substrate to each sample. The elastase activity of each sample was determined by measuring the absorbency at 410 nm, and then the association constant was calculated from the plot slope of reciprocal of elastase concentration vs time.

Data set [2] relates to elastase. Kind of data set: Thermal inactivation of purified AT at 57-58° C., remaining elastase inhibiting activity. The data set is classed as physicochemical. Particulars: for half-life: purified AT. As to the method: as §1, with “The activity of AT was measured by evaluating the inhibition by AT of the elastase's activity to degrade peptides in accordance with the procedure described by Travis & Johnson in Methods in Enzymol., 80, 754 (1981). Specifically,” for “Specifically,”
The elastase inhibiting activity of AT was evaluated by using a modified method described by Travis et al. (Travis & Jonhson, Methods in Enzymol. 80, 754 (1981)). As a reaction buffer, 50 mM Tris (pH 8.0) containing 50 mM NaCl was used, and 15 mM succinyl-alanyl-alanyl-alanyl-paranitro-anilide (SIGMA S4760) dissolved in dimethyl-sulfoxide was used as a substrate for elastase. An enzyme solution was prepared by dissolving elastase to the concentration of 0.3 μM in the reaction buffer solution containing 50% glycerol.
(§2) The elastase inhibiting activity of AT was determined as follows: 10 μl of the enzyme solution, 10 to 50 μl of the AT extracts and the reaction buffer solution were mixed to make the final volume of 60 μl, and then reacted for 10 mins. After 430 μl of the reaction buffer solution and 10 μl of the substrate were added thereto, the change of absorbency at 410 nm was immediately measured for 3 mins.
For the comparison of their thermal stability, various kinds of AT muteins were incubated at 57° C., from which samples were taken every minute. Then the remaining activity of AT muteins was determined in the same manner as described in Example 1 above and their half-life and thermal inactivation rate were calculated from the slope of the plot of a logalithmic value of the remaining activity vs time (see FIG. 3).

Data set [3] concerns elastase. Briefly: Thermal stability at 55° C. of AT expressed in E. coli, elastase inhibiting activity measured every minute. Particulars: FIG. 8. The data set is classed as physicochemical. As to the method: as §1, with “The activity of AT was measured by evaluating the inhibition by AT of the elastase's activity to degrade peptides in accordance with the procedure described by Travis & Johnson in Methods in Enzymol., 80, 754 (1981). Specifically,” for “Specifically,”, “As controls, a wild-type AT produced in E. coli or yeast cell and natural AT isolated and purified from human plasma were used.” left out
The elastase inhibiting activity of AT was evaluated by using a modified method described by Travis et al. (Travis & Jonhson, Methods in Enzymol. 80, 754 (1981)). […]
as §2

Where [4] appears, read: Table II, ATs produced in yeast and controls.

One may read the half-life as how long it takes for the measured level to halve. The low end stands for fast loss, the high end for slow loss.

In turn, “wild-type yeast AT (phenylalanine): wild-type α-1-antitrypsin produced in Saccharomyces diastaticus (pGAT11)” gave an association constant in data set [1] (setting [4]) of 1.5e+06 M⁻¹ s⁻¹. For the same substance, in data set [2] (at 58° C.), the “thermal resistance, times higher than that of the wild-type recombinant AT expressed in E. coli” value was found to be 5.3 times and the half-life turned out to be 6.9 min. In data set [2] (at 58° C., produced in yeast), the “thermal resistance (in words)” value was “a lower thermoresistance than that of the human plasma AT”.

“multiple mutant AT wherein the 51st residue is leucine and the 374th is isoleucine: α-1-antitrypsin with two replacements: 51st leucine and 374th isoleucine, expressed in E. coli”: the “thermoresistance, times higher than the single mutant ATs” value in data set [3] was “at least 300 times”.

As to “Human plasma AT: natural α-1-antitrypsin from human plasma (A9204), purified over Affi-Gel Blue and mono-Q columns”, the association constant in data set [1] (Table I, 8 nM elastase and 8 nM AT, purified AT) came to 1.7e+06 M⁻¹ s⁻¹; in data set [1] (setting [4]), 1.7e+06 M⁻¹ s⁻¹. Further, the half-life came to 49.7 min in data set [2] (at 57° C.) and 35.2 min in data set [2] (at 58° C.).

The record behind these values is US5817484A, “Thermoresistant α-1-antitrypsin mutein” (priority 1993, dated 1998).
